Assay results as given in article PMC7985710.

What was measured:
[1] = target: R174C-SR-BI (human variant of scavenger receptor class B type I) (human) (UniProt Q8WTV0); assay: radioligand binding; [^125I]-HDL binding: transfected COS-7 cells incubated with 10 μg/ml double-radiolabeled human HDL for 1.5 h at 4°C
[2] = target: WT scavenger receptor class B type I (human SR-BI) (human) (UniProt Q8WTV0); assay: as above
[3] = target: Human HDL, double-radiolabeled; assay: [125I]-HDL cell association on transfected COS-7 cells; settings: COS-7 cells transiently expressing WT or mutant SR-BI; n = 3 independent transfections; empty vector bar est. 30 % of WT; parent: est. 100; read off a plot

| HDL binding, percent of WT-SR-BI [1] [%] | HDL binding (raw value) (ng/mg protein) [2] | percent of parent [3] | Substance |
| --- | --- | --- | --- |
| 31.3 | 22.7 | – | Human HDL, double-radiolabeled (complex) |
| – | – | 82 % of WT | WT scavenger receptor class B type I (human SR-BI) (from UniProt Q8WTV0-2) D185R |
| – | – | 44 % of WT | WT scavenger receptor class B type I (human SR-BI) (from UniProt Q8WTV0-2) R174D; D185R |
| – | – | 72 % of WT | WT scavenger receptor class B type I (human SR-BI) (from UniProt Q8WTV0-2) R174K |
